Laboratory results taken from patent publication US7345022B2, “Anti-fibril peptides” (Board of Supervisors of Louisiana State University and …, priority 2002, dated 2008).
*1 amine or outer side, *2 acyl side, *3 side chain or, on linkers, in order; H or OH if unused. Where no end group is shown, it is not given here. [ ]: non-standard residue; d: D form. Dbzg = C-alpha,alpha-dibenzylglycine, O=C(C(Cc1ccccc1)(Cc1ccccc1)N[*:1])[*:2]; Dibg = C-alpha,alpha-diisobutylglycine, CC(C)CC(CC(C)C)(N[*:1])C(=O)[*:2]; Dpg = CCCC(N)(CCC)C(=O)O

Experiments:
PC-12 cells = details: MTT, reported by Pallitto et al.; cited from earlier work
[1] = prior pentapeptide inhibitors of Aβ1-40 fibril formation; cited from earlier work
Aβ10-35 = target: T1, Aβ10-35 (Homo sapiens, UniProt P05067); assay: Inhibition of Aβ10-35 aggregation on incubation in phosphate buffer; type: biochemical; details: incubated with Aβ10-35 in phosphate buffer at 37° C.
T1 construct: incubated with the amyloidogenic peptide Aβ10-35 in phosphate buffer at 37° C
Experimental: (§1) wherein Dibg is C^α,α-diisobutylglycine; Dbzg is C^α,α-dibenzylglycine; and Dpg is C^α,α-dipropylglycine. The AMY-1 peptide inhibits aggregation at concentrations of ˜5 μM when incubated with the amyloidogenic peptide Aβ10-35 in phosphate buffer at 37° C., under conditions where the Aβ10-35 peptide alone would form amyloid fibrils. […] AMY-1 is also depicted in FIG. 3. FIG. 4 depicts the manner in which AMY-1 blocks further extension of a growing β-sheet formed from the Aβ peptide.

[2] = system: preformed β-amyloid fibrils; assay: Dissolution of preformed fibrils (SPM and TEM); type: biochemical; details: preliminary
Experimental: Preliminary experiments have confirmed that the novel peptides can promote the dissolution of existing fibrils. The ability of the peptide AMY-1 to dissolve preformed fibrils was assessed with both scanning probe microscopy (SPM) and transmission electron microscopy (TEM). […] A twisting appeared in the middle of the length of the fibril, as if the AMY-1 peptide was interpolating into it.

Aβ1-40 = Aβ1-40 (Homo sapiens, UniProt P05067); assay: Interaction with Aβ1-40: aggregate and fibril formation (visual, scanning probe microscopy); type: biochemical; details: for product of the interaction with Aβ1-40: preliminary studies
Experimental: (3) AMY-2 self-aggregates at 50 μM. The interaction of β-Amyloid and AMY-2 is apparent visually. […] SPM images were taken of adsorbed peptide material on a hydrophilic surface (mica or muscovite). […] These non-fibrillar aggregates were ˜100 nm in height and appeared as clusters of aggregated peptide material. […] Another study to explore the later β-Amyloid aggregation (i.e., fibril formation) produced an image of elongated fibrils greater than 10 μm long and 8 nm high.

[3] = Self-aggregation of the peptide; type: physicochemical
Experimental: Other strategies have included combinatorial approaches to screen short pentapeptides with L- or D-amino acids to develop small, mostly hydrophobic, inhibitors of Aβ1-40 fibril formation. […] Thus, these peptides can themselves become part of high order aggregates.
as §1
(3) AMY-2 self-aggregates at 50 μM.

[4] = adsorbed on hydrophilic surface (mica or muscovite), β-Amyloid1-40

Aβ1-40, sequence (P05067 672-711 limits assumed): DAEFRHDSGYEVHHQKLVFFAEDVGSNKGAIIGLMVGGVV
preformed β-amyloid fibrils, sequence (P05067 681-706 limits assumed): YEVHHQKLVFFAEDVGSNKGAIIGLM

KLVFF
protective effect against Aβ toxicity (PC-12 cells): protective effect against Aβ toxicity
self-aggregation (literature) [1]: aggregate and form insoluble precipitates

Lys-Dibg-Val-Dbzg-Phe-Dpg-(Lys)6-NH2 [AMY-1]
concentration at which the peptide inhibits aggregation (Aβ10-35): ~5 µM
effect on preformed fibrils, SPM image ([2]; SPM at 10×10 μm^2, on mica): less adsorbed Aβ protein on mica
effect on preformed fibrils, TEM ([2]; preformed β-amyloid, TEM): the fibrillar structures were substantially frayed
fibril formation after long incubation with Aβ1-40 (Aβ1-40; 4.5 month-incubation, preliminary, data not shown): no massive fibrils were formed
product of the interaction with Aβ1-40 (Aβ1-40; data not shown): small, non-fibril aggregate
self-aggregation [3]: does not aggregate with itself

KLVF (listed as Homo sapiens)
protective effect against Aβ toxicity (PC-12 cells): protective effect against Aβ toxicity

(Lys)7-Dibg-Val-Dbzg-Phe-Dpg-NH2 (KKKKKKK[Dibg]V[Dbzg]F[Dpg]-NH2; N-terminus assumed; SMILES CCCC(CCC)(NC(=O)[C@H](Cc1ccccc1)NC(=O)C(Cc1ccccc1)(Cc1ccccc1)NC(=O)[C@@H](NC(=O)C(CC(C)C)(CC(C)C)NC(=O)[C@H](CCCCN)NC(=O)[C@H](CCCCN)NC(=O)[C@H](CCCCN)NC(=O)[C@H](CCCCN)NC(=O)[C@H](CCCCN)NC(=O)[C@H](CCCCN)NC(=O)[C@@H](N)CCCCN)C(C)C)C(N)=O) [AMY-2]
fibril formation (later aggregation study, image) (Aβ1-40; 1:1 ratio of 50 μM β-Amyloid and peptide): no fibril formation
visual appearance of the solution (Aβ1-40; added to β-amyloid at 1:1 ratio, 50 μM each, room temperature): the solution rapidly turned opaque
height of the non-fibrillar aggregates (SPM) (Aβ1-40; [4]): ~100 nm
morphology of the interaction product (SPM images) (Aβ1-40; [4]): large, amorphous aggregates
product of the interaction with Aβ1-40 (Aβ1-40; data not shown): large, non-fibril aggregate
concentration at which the peptide self-aggregates ([3]; preliminary studies, data not shown): 50 µM
